Measured values from paper doi:10.1101/2024.11.27.625426 (bioRxiv, 2024).

Molecular target: N1-CA09-sNAp, stabilized neuraminidase protein of A/California/04/2009 (H1N1) (influenza A virus A/California/04/2009 (H1N1)) (UniProt C3W5S3)
Assay: cryo-EM structure

Substance “N1-CA09-sNAp, stabilized neuraminidase protein of A/California/04/2009 (H1N1) (from UniProt C3W5S3 1-469) (enzyme)” has a stoichiometry N of 4 protomers.
